One series addresses T1, m^7GTP-CBC (Homo sapiens, UniProt P52298+Q09161).
T1 construct: 6-histidine tag (pETM30 vector) (N, cleaved yes); made in house; host or cells: CBP20 in E. coli Rosetta 2; CBP80ΔNLS in High Five insect cells; heterodimer reconstituted on Ni-sepharose
T1 sequence (Q09161 20-790): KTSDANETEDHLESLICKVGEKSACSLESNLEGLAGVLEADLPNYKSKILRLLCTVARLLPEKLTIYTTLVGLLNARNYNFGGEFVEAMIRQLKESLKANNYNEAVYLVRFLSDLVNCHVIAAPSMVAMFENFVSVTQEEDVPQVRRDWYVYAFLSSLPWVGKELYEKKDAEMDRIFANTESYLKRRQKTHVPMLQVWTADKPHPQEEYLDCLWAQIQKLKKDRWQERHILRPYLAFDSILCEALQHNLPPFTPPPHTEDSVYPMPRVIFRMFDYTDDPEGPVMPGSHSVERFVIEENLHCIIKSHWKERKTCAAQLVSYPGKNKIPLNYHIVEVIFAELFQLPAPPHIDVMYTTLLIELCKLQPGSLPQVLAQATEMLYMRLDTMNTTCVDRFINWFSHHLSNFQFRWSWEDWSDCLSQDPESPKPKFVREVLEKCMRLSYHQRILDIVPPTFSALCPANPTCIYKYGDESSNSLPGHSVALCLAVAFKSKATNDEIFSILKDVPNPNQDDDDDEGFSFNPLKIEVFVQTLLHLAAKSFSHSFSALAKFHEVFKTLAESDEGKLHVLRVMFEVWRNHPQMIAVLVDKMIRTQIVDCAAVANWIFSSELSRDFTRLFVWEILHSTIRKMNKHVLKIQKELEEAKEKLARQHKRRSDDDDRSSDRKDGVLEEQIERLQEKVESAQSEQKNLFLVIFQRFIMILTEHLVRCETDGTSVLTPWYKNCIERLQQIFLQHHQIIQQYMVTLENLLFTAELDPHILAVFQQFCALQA
T1 sequence (P52298 1-156): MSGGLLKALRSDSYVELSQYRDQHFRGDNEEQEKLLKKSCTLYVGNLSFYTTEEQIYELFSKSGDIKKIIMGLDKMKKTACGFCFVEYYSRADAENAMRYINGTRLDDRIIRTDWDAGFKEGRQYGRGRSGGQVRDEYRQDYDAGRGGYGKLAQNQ
Briefly: Fluorescence polarisation with FAM-labelled C-terminal peptides. Type of series: binding. The following applies: competition, 40 nM FAM peptide, 25 µM m^7GTP, 25 °C, n = 3. As for the experimental part:
Fig. 4 Incompatibility of ARS2-PHAX and NELF-E binding to CBC. a, b Competition on m^7GTP-sepharose. a In separate experiments, different amounts of ARS2^147–871 were added to preformed CBC–NELF–E complex immobilised on m^7GTP-sepharose. […] The fluorophore FAM is represented with a star. Note that different constructs of NELF-E and ARS2 were used in c, d, and e compared to f, g, and h and are therefore represented by slightly different shapes. Error bars show the SD of three experiments
Fluorescence anisotropy binding assays were performed with N-terminal FAM-labelled ARS2^845–871 and […] peptides. 40 nM peptides were titrated with increasing concentrations of proteins in 20 mM HEPES, pH 7.8, 120 mM NaCl, 2 mM tris(2-carboxyethyl)phosphine. For the competition assay CBC–ARS2 and CBC–NELF–E complexes were preformed in the presence of 25 µM m^7GTP using 40 nM ARS2^827–871(FAM) peptide together with 60 nM CBC and 40 nM NELF-E^354–380(FAM) peptide with 1 µM CBC. […] To observe a change in polarisation at reasonable protein concentrations, CBC and NELF-E^244–380 concentrations that saturate half of the FAM-labelled peptides were used to preform the individual complexes. Fluorescence polarisation was measured at 25 °C with a microplate reader (CLARIOstar BMG LABTECH) using an excitation wavelength of 495 nm and emission wavelength of 515 nm. For analysis the polarisation value for the peptide alone was subtracted from the measurements.
On the technique in general: Polarisation of emitted light reports the rotation of a fluorescent probe.

In series [1] the target is T2, CBC (Homo sapiens, UniProt P52298).
T2 sequence (P52298 1-156): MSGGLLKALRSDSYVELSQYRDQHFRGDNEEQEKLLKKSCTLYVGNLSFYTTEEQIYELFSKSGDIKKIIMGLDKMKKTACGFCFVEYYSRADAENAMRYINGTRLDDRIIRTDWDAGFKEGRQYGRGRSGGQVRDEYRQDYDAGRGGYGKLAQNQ
T2 sequence (Q09161 20-790 partner): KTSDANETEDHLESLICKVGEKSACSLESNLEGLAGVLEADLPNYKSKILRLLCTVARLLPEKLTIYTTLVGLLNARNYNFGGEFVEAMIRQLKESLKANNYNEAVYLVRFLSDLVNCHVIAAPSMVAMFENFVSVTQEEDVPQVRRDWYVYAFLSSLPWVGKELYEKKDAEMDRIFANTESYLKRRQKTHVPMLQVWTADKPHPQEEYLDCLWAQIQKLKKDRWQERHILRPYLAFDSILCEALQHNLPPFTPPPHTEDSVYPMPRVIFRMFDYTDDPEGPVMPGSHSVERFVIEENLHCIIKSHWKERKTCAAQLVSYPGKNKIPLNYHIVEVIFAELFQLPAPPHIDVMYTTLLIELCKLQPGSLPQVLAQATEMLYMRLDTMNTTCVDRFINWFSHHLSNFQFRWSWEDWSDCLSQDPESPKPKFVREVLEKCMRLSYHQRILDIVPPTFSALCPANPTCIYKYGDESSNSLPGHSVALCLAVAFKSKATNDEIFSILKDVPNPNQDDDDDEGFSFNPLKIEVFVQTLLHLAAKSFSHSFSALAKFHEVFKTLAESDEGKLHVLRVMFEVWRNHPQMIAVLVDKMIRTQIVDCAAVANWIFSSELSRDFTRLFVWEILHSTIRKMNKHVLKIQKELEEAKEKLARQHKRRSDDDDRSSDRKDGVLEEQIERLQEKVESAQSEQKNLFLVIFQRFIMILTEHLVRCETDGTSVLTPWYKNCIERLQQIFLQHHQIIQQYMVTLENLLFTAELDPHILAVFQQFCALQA
Briefly: ITC, binding to CBC without cap analogue. The following applies: ITC (MicroCal ITC200), 25 °C, 20 mM HEPES, 120 mM NaCl, 2 mM TCEP, pH 7.8, single-site fit; no cap analogue pre-bound; mean ± SD of at least two independent experiments; SD. The source says:
hARS2 isoform-4 (871 residues, UniProt:Q9BXP5-4, also known as isoform-e, NP_001122326) constructs (residues 147–871, 147–845, 763–871, 763–845, 827–871) hNELF-E (NM_002904.5) (244–380, 244–360) and hPHAX (NM_032177.3) (1–394, 103–294, 103–308, 103–327) were cloned into pETM11 (EMBL). Full-length hNELF-E (1–380) was cloned into pFASTBac and CBP20 into pETM30. Primers used are given in Supplementary Table 2. All constructs were expressed in E. coli Rosetta 2 (Novagen), except full-length NELF-E and CBP80ΔNLS (CBP80 with residues 1–19 deleted[2]), which were expressed in High Five insect cells (Life Technology). Cells were harvested and lysed by sonication in lysis buffer containing 50 mM HEPES, pH 7.8, 300 mM NaCl, 10% (v/v) glycerol, 5 mM β-mercaptoethanol. Lysates were clarified by centrifugation and applied on an equilibrated Ni-sepharose column (GE Healthcare), washed with 20 mM imidazole in lysis buffer, and eluted with 300 mM imidazole in lysis buffer. While dialysing into 20 mM HEPES, pH 7.8, 120 mM NaCl, 10% (v/v) glycerol, 5 mM β-mercaptoethanol, the N-terminal 6-histidine-tag was cleaved with His-tagged Tobacco Etch Virus (TEV) protease overnight in a ratio 1:100 mg TEV per mg protein. The cleaved protein was further purified first on Ni-sepharose to remove TEV and then using an anion exchange column (HiTrap Q, GE Healthcare) followed if necessary by a Heparin column (GE Healthcare). In both cases a NaCl gradient from 50 to 800 mM in 20 mM HEPES 7.8, 0.5 mM tris(2-carboxyethyl)phosphine was used. To reconstitute the CBC heterodimer, cleared His-tagged CBP20 lysate was first immobilised on a Ni-sepharose column. After washing the column with lysis buffer, the cleared CBP80 lysate was applied to the column and further purification steps performed as described above. To remove the access of CBP20 the flow through of the Ni-column after TEV cleavage was loaded on an anion exchange column (HiTrap Q, GE Healthcare) and CBC eluted by a NaCl gradient as described above. In the text we refer to CBP80ΔNLS and CBP80ΔNLS-CBP20 as CBP80 and CBC, respectively. ARS2^845–871, NELF-E^354–380, and NELF-E^360–380 peptides, with or without FAM label at the N-terminus, were purchased from GenScript.
(In ITC the heat of successive injections is recorded.)

Series [2] concerns the target T2, CBC. Nature of the series: Size exclusion chromatography (gel filtration) co-elution with CBC, without m^7GTP. Type of series: binding. To be noted: fractions analysed by SDS-PAGE, absence of m^7GTP. The protocol: Fig. 1 The interaction of CBC with ARS2 is enhanced in the presence of m^7GTP. a Schematic diagram of the domain structure of ARS2 based on ref. [26]. b Gel filtration chromatogram and Coomassie-stained SDS-PAGE of CBC-ARS2 in the presence and absence of m^7GTP. Purified recombinant CBC and ARS2^147–871 were mixed with (orange) or without (blue) 500 µM m^7GTP and subjected to gel filtration. Their elution profiles were overlaid (left) and single fractions analysed by SDS-PAGE (middle and right). Purified recombinant CBC and C-terminally truncated ARS2^147–845 were mixed with 500 µM m^7GTP and analysed in a similar way (bottom left). c ITC data and curve fit to derive the affinity of different ARS2 constructs for CBC. CBC or m^7GTP-CBC in the sample cell was titrated by ARS2. […] K D values and standard deviation represent the average from at least two independent experiments. d Sequence alignment of the C-terminus of ARS2. Conserved residues are highlighted in red. Figure made with ESPript[54]
Fig. 2 The interaction of CBC with NELF-E is enhanced in the presence of m^7GTP. a Schematic diagram of the domain structure of NELF-E. b Gel filtration chromatogram and Coomassie-stained SDS-PAGE of CBC-NELF-E in the presence and absence of m^7GTP. […] Their elution profiles were overlaid (left) and single fractions analysed by SDS-PAGE (middle and right). […]
Background: SEC sorts molecules by how far they enter the pores of the column.

From paper PMC5670239, “Structural basis for mutually exclusive co-transcriptional nuclear cap-binding complexes with either NELF-E or ARS2” (Nature Communications, 2017) come the findings set out here.

B1: PHAX 103–327: human PHAX residues 103–327, includes the full PHAX RBD (protein, UniProt Q9H814 103-327, looked up, fragment)
chain: SQKPPVAGGKKINNIWGAVLQEQNQDAVATELGILGMEGTIDRSRQSETYNYLLAKKLRKESQEHTKDLDKELDEYMHGGKKMGSKEEENGQGHLKRKRPVKDRLGNRPEMNYKGRYEITAEDSQEKVADEISFRLQEPKKDLIARVVRIIGNKKAIELLMETAEVEQNGGLFIMNGSRRRTPGGVFLNLLKNTPSISEEQIKDIFYIENQKEYENKKAARKRRT
As to B1, the “Change of polarisation on titration to m^7GTP-CBC-ARS2^845–871(FAM)” value with m^7GTP-CBC (60 nM CBC) is reported as “did not affect the polarisation”. The “Change of polarisation on titration to m^7GTP-CBC-NELF-E^354–380(FAM)” value in the series with m^7GTP-CBC (1 µM CBC) was “did not change the polarisation”. Further, the Kd with CBC [1] was 350 ± 71 nM.

B2: PHAX 120–308: human PHAX residues 120–308 (protein, UniProt Q9H814 120-308, looked up, fragment)
chain: AVLQEQNQDAVATELGILGMEGTIDRSRQSETYNYLLAKKLRKESQEHTKDLDKELDEYMHGGKKMGSKEEENGQGHLKRKRPVKDRLGNRPEMNYKGRYEITAEDSQEKVADEISFRLQEPKKDLIARVVRIIGNKKAIELLMETAEVEQNGGLFIMNGSRRRTPGGVFLNLLKNTPSISEEQIKDIF
With B2, in the series with CBC [2], the “Interaction with CBC by SEC” value was “No interaction via SEC”.

As usually defined, the Kd is a measure of binding affinity in units of concentration. Read a low Kd as higher affinity.
